Source: patent EP2170953B1

Target: Aβ1-28 peptide, biotinylated (Anaspec)
Assay: ELISA on biotinylated peptide, Ab 10 µg/ml, mean of 2, background subtracted
Details: remark: other sources report otherwise

Aβ1-28 peptide, biotinylated (Anaspec), sequence (chain, as listed by the source): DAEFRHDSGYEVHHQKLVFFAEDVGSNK

B1: ACI-12-Ab-11 (antibody, V domains shown)
VL: QAVVTQESALTTSPGGTVILTCRSSTGAVTTSNYANWVQEKPDHLFTGLIGGTSNRAPGVPVRFSGSLIGDKAALTITGAQTEDDAMYFCALWYSTHYVFGGGTKVTVL
VH: QVQLQQSDAELVKPGASVKISCKVSGYTFTDHTIHWMKQRPEQGLEWIGYIYPRDGSTKYNEKFKGKATLTADKSSSTAYMQLNSLTSEDSAVYFCARDYGYAFDYWGQGTTLTVSS
modifications: here or on the partner: biotinylated (position not given)
O.D. (mean): -0.02 O.D.
